Patent US20260097101

What was measured:
[1] = target: Native pancreatic polypeptide (PP)

B1: purified porcine DPP-4 (dipeptidyl peptidase-4) (protein)
chain: DSRRTYTLTDYLKSTFRVKFYTLQWISDHEYLYKQENNILLFNAEYGNSSIFLENSTFDELGYSTNDYSVSPDRQFILFEYNYVKQWRHSYTASYDIYDLNKRQLITEERIPNNTQWITWSPVGHKLAYVWNNDIYVKNEPNLSSQRITWTGKENVIYNGVTDWVYEEEVFSAYSALWWSPNGTFLAYAQFNDTEVPLIEYSFYSDESLQYPKTVRIPYPKAGAENPTVKFFVVDTRTLSPNASVTSYQIVPPASVLIGDHYLCGVTWVTEERISLQWIRRAQNYSIIDICDYDESTGRWISSVARQHIEISTTGWVGRFRPAEPHFTSDGNSFYKIISNEEGYKHICHFQTDKSNCTFITKGAWEVIGIEALTSDYLYYISNEHKGMPGGRNLYRIQLNDYTKVTCLSCELNPERCQYYSASFSNKAKYYQLRCFGPGLPLYTLHSSSSDKELRVLEDNSALDKMLQDVQMPSKKLDVINLHGTKFWYQMILPPHFDKSKKYPLLIEVYAGPCSQKVDTVFRLSWATYLASTENIIVASFDGRGSGYQGDKIMHAINRRLGTFEVEDQIEATRQFSKMGFVDDKRIAIWGWSYGGYVTSMVLGAGSGVFKCGIAVAPVSKWEYYDSVYTERYMGLPTPEDNLDYYRNSTVMSRAENFKQVEYLLIHGTADDNVHFQQSAQLSKALVDAGVDFQTMWYTDEDHGIASNMAHQHIYTHMSHFLKQCFSLP
- DPP-4 stability (degradation by purified DPP-4, 5 mU, 0-8 h; RP-HPLC and MALDI-ToF) [1]: <2 h
- DPP-4 stability (degradation by purified DPP-4, 5 mU, 0-8 h; RP-HPLC and MALDI-ToF) ([P^3]PP): >8 h
